In US20110142830A1 one finds EC50 data, which are given here for one molecule.

The assay deals with sSortilin, Q99523. Description: SPR. As to conditions: modification not given.
sSortilin, Q99523, sequence (Q99523 78-755): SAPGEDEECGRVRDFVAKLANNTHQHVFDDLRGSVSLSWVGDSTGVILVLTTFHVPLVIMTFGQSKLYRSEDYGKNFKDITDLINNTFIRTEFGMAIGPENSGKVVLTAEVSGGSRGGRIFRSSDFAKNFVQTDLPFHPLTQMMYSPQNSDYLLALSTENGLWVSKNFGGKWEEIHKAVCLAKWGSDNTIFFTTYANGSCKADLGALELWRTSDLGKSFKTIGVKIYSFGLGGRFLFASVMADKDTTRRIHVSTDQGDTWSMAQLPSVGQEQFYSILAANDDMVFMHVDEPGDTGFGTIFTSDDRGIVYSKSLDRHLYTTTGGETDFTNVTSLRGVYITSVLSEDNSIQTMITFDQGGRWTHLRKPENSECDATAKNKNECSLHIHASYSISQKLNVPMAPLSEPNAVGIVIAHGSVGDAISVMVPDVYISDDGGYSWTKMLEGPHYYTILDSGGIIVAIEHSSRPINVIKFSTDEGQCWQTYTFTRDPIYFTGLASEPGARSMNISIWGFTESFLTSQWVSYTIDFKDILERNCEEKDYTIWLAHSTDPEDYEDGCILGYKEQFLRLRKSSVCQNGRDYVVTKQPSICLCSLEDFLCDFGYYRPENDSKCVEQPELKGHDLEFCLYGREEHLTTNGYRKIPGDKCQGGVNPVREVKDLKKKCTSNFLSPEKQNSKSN

The term EC50 denotes the midpoint of the concentration-response curve. Lower therefore signals higher potency in that assay. In turn, RRPYIL [NT8-13] returned a 50% effective concentration (EC50) of 460 nM.
